Measured values as given in paper PMC9083094.
Several values for one entry are separate records, joined by “and”; a condition that tells them apart may be missing. Identical values can stand only once.

Columns and labels:
[1] = molecular target: Aβ_(C24C29), mutant Aβ42 peptide with an intramolecular disulfide bond; test: SDS-PAGE
[2] = molecular target: Aβ_(C18C33), mutant Aβ42 peptide containing an intramolecular disulfide bond; test: native MS
[3] = molecular target: Aβ_(C18C33), mutant Aβ42 peptide containing an intramolecular disulfide bond; test: native MS; remark: listed apart in the source
[4] = molecular target: Aβ_(C18C33), mutant Aβ42 peptide containing an intramolecular disulfide bond; test: SDS-PAGE
[5] = molecular target: Aβ_(C18C33), mutant Aβ42 peptide containing an intramolecular disulfide bond; test: SEC-MS
[6] = molecular target: Aβ_(C18C33), mutant Aβ42 peptide containing an intramolecular disulfide bond; test: SDS-PAGE; remark: listed apart in the source
[7] = molecular target: Aβ_(C18C33), mutant Aβ42 peptide containing an intramolecular disulfide bond; test: native MS; remark: listed apart in the source

stoichiometry N [1] | stoichiometry N [2] | stoichiometry N [3] | stoichiometry N [4] | stoichiometry N [5] | stoichiometry N [6] | stoichiometry N [7] | Substance
3 and 4 |  |  |  |  |  |  | Aβ_(C24C29), mutant Aβ42 peptide with an intramolecular disulfide bond
 | 4 | 2 and 4 | 2 | 2 | 2 | 4 | Aβ_(C18C33), mutant Aβ42 peptide containing an intramolecular disulfide bond
